Measurements taken from the supplement of paper PMC10065799, “High-throughput profiling of sequence recognition by tyrosine kinases and SH2 domains using bacterial peptide display” (eLife, 2023).

These sequences were tested against Hck (UniProt P08631) (assay: phosphorylation enrichment, bacterial display (enrichment ratio); higher = better substrate or ligand; peptides without Tyr show the background).
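Further: 11-residue human phosphosite peptides and single-mutation variants displayed on the E. coli surface, counted by deep sequencing, each peptide's frequency after selection divided by its frequency in the unselected input library; frequency after pTyr selection over input frequency; kinase dosed for 20-30% of maximal phosphorylation in three min.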

Sequence of Hck (P08631 whole entry, looked up): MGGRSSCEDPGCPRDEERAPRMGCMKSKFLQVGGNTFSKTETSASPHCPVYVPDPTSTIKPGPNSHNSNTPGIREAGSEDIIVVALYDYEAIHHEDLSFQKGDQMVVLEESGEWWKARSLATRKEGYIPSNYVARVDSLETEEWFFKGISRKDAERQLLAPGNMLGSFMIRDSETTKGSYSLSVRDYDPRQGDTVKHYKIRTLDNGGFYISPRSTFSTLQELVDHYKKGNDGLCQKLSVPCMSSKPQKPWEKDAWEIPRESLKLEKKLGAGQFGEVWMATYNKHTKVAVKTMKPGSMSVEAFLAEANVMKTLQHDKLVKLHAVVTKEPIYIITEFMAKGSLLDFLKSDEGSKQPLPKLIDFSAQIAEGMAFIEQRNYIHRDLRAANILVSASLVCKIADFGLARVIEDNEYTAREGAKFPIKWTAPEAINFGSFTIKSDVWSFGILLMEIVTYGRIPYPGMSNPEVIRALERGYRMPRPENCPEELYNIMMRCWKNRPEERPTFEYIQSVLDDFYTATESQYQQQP

Sequence	phosphorylation enrichment
SAEKAYHEQLS [TUBA1A_Y282]	0.443
SHISGYATLRR [RAPH1_Y1226]	0.4
KCLAVYQAGAR [APOE_Y180_R176C]	0.812
VLTSKHRGGGG [HBA1_Y141_Y141H]	0.322
QTLTDYDTRFY [CSNK2A3_Y131_I133T]	0.619
MKDLTYASLCF [ALOX5_Y446]	5.35
SWSTSYSGFRF [NKAPL_Y91_YF]	0.858
EKRDAYVSCLN [GSR_Y150_R153C]	0.53
ARVANYQRDGP [CAT_Y386]	0.386
GVLKEYGVKVL [CPS1_Y529]	0.431
EADRKYEEVAG [TPM3_Y163_R168G]	0.523
GDAMLYYPSVS [GPR143_Y177_A173D]	2.77
RQNRFYDAKVR [FKBP6_Y188]	0.606
NRKGKYFNVER [ANAPC4_Y469]	0.695
VFAPDFIAGVS [NOB1_Y366_Y366F]	0.435
GIVEDYRPTFF [ACVRL1_Y421_P424T_YF]	0.416
QRIFQYIRSRF [DYRK1B_Y273_Q275R_YF]	0.83

Sequence	phosphorylation enrichment
ILGRFYETGSI [PAX2_Y73_YF]	0.451
GFIISYREEEQ	0.456
IRTIDYRFTVW [IDS_Y497_YF]	0.489
KEAQVYQAFKL [SUCLG2_Y343]	9.46
KDQGIYEDFVE [MYL6_Y86_T85I_YF]	1.07
FSMGCYEISLE [HMGCL_Y198_G203E_YF]	0.758
SRGSSYNSIPK [FLNC_Y2625_S2626N]	0.286
ATHSRYRLNDY [CLDN14_Y233_G232R]	0.505
SIKDKYVTVLF [KCNH2_Y611_A614V_YF]	0.546
ENGPFYASFPP [GDAP2_Y488_T489A_YF]	8.77
ECKLFYSRKEG [PTPN11_Y263_L262F]	0.626
STSKTYVISQT [RBBP6_Y87_R91Q]	0.372
MVSLFYGTAIF [OR10C1_Y251_L255I]	0.995
RLLVVYPSTQR [HBB_Y36_W38S]	1.17
LGRTVYADCLA [ABCA4_Y2063_L2060R]	0.989
VTRKEYFIFLE [CAMKV_Y95]	0.43

Each sequence was assayed against FGFR1 (UniProt P11362) in the same assay as above.
Sequence of FGFR1 (P11362 whole entry, looked up): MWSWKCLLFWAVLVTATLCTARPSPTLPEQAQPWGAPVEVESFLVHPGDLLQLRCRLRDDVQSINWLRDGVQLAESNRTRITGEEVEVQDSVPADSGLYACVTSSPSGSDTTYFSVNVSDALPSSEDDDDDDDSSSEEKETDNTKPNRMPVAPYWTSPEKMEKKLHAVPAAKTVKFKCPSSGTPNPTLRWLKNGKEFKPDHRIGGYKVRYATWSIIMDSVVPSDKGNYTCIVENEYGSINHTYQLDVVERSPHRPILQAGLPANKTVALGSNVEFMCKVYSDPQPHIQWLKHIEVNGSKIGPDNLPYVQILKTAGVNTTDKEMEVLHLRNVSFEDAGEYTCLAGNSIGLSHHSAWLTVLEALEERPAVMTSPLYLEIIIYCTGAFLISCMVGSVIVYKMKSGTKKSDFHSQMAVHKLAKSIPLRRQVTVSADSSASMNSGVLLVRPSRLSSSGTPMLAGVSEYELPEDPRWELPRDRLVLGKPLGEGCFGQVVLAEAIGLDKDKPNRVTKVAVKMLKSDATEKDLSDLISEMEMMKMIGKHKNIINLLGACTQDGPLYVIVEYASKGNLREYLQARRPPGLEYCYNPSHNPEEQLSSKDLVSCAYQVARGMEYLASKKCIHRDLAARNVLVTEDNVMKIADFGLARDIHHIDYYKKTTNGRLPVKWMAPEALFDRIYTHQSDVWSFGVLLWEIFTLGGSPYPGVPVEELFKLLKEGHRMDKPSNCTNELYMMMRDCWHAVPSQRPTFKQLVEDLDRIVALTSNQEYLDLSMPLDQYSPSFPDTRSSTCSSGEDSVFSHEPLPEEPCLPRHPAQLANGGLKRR

Sequence	phosphorylation enrichment
SAEKAYHEQLS [TUBA1A_Y282]	0.604
SHISGYATLRR [RAPH1_Y1226]	0.392
KCLAVYQAGAR [APOE_Y180_R176C]	0.47
VLTSKHRGGGG [HBA1_Y141_Y141H]	0.464
QTLTDYDTRFY [CSNK2A3_Y131_I133T]	0.612
MKDLTYASLCF [ALOX5_Y446]	0.901
SWSTSYSGFRF [NKAPL_Y91_YF]	0.637
EKRDAYVSCLN [GSR_Y150_R153C]	0.563
ARVANYQRDGP [CAT_Y386]	0.524
GVLKEYGVKVL [CPS1_Y529]	0.384
EADRKYEEVAG [TPM3_Y163_R168G]	0.6
GDAMLYYPSVS [GPR143_Y177_A173D]	5.91
RQNRFYDAKVR [FKBP6_Y188]	0.506
NRKGKYFNVER [ANAPC4_Y469]	0.473
VFAPDFIAGVS [NOB1_Y366_Y366F]	0.664
GIVEDYRPTFF [ACVRL1_Y421_P424T_YF]	0.592
QRIFQYIRSRF [DYRK1B_Y273_Q275R_YF]	0.75

Sequence	phosphorylation enrichment
ILGRFYETGSI [PAX2_Y73_YF]	0.423
GFIISYREEEQ	0.478
IRTIDYRFTVW [IDS_Y497_YF]	0.41
KEAQVYQAFKL [SUCLG2_Y343]	0.516
KDQGIYEDFVE [MYL6_Y86_T85I_YF]	0.688
FSMGCYEISLE [HMGCL_Y198_G203E_YF]	0.541
SRGSSYNSIPK [FLNC_Y2625_S2626N]	0.33
ATHSRYRLNDY [CLDN14_Y233_G232R]	0.387
SIKDKYVTVLF [KCNH2_Y611_A614V_YF]	0.482
ENGPFYASFPP [GDAP2_Y488_T489A_YF]	3.05
ECKLFYSRKEG [PTPN11_Y263_L262F]	0.457
STSKTYVISQT [RBBP6_Y87_R91Q]	0.431
MVSLFYGTAIF [OR10C1_Y251_L255I]	0.477
RLLVVYPSTQR [HBB_Y36_W38S]	1.07
LGRTVYADCLA [ABCA4_Y2063_L2060R]	0.918
VTRKEYFIFLE [CAMKV_Y95]	0.786
